Data as given in patent EP3964526A1 (Novartis AG, dated 2022).

Assays:
[1] = target: VEGF (as used in the VEGFR competition ELISA); test: competition ELISA against hVEGR1, EC50 ratio to reference Luc
[2] = target: T1, recombinant human VEGF165 (PeproTech EC Ltd.) (human, UniProt P15692-4 27-191); test: SPR BIAcore T100, hVEGF165 amine-coupled on CM4 chip, scFv as analyte
T1 construct: Amine-coupled to a CM4 sensor chip; also called hVEGF165

[3] = target: VEGF (as used in the VEGFR competition ELISA); test: competition ELISA against hVEGR1, EC50 ratio to reference Luc; second of two values in the cell
[4] = target: VEGF (as used in the VEGFR competition ELISA); test: competition ELISA against hVEGR1, EC50 ratio to reference Luc; first of two values in the cell

VEGF (as used in the VEGFR competition ELISA), sequence (P15692 whole entry): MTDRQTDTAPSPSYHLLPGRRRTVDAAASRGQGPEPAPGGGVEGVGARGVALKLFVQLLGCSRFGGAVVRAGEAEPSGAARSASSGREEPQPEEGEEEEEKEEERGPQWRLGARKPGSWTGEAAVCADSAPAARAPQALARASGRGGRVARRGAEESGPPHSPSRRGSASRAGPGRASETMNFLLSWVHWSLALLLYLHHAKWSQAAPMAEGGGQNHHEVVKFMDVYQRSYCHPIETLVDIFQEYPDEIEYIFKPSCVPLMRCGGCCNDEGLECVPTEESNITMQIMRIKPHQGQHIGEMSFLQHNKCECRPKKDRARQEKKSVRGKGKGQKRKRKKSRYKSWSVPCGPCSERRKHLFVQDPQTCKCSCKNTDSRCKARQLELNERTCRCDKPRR
T1 sequence (P15692 other isoform, or with tags, fused parts or gaps limits assumed): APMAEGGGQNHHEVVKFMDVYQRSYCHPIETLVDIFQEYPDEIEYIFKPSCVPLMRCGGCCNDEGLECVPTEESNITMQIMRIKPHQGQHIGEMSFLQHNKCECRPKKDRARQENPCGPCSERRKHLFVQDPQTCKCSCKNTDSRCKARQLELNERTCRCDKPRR

Rel. activity hVEGR1 comp. ELISA (EC50Luc[nM]/EC50test[nM]) [1] [ratio]	Kd [2] [nM]	koff [2] [s⁻¹]	kon [2] [M⁻¹ s⁻¹]	Rel. activity hVEGR1 comp. ELISA (EC50Luc[nM]/EC50test[nM]) [3] [ratio]	Rel. activity hVEGR1 comp. ELISA (EC50Luc[nM]/EC50test[nM]) [4] [ratio]	Binder
4.8	9.01	0.0103	1.14e+06			578-min (scFv) EIVMTQSPSTLSASVGDRVIITCQASEIIHSWLAWYQQKPGKAPKLLIYLASTLASGVPSRFSGSGSGAEFTLTISSLQPDDFATYYCQNVYLASTNGANFGQGTKLTVLGGGGGSGGGGSGGGGSGGGGSEVQLVESGGGLVQPGGSLRLSCAASGFSLTDYYYMTWVRQAPGKGLEWVSFIDPDDDPYYATWAKGRFTISRDNSKNTLYLQMNSLRAEDTAVYYCAKGDHNSGWGLDIWGQGTLVTVSS
	0.439	0.000307	700000	51.6	35.5	578-max (scFv) EIVMTQSPSTLSASVGDRVIITCQASEIIHSWLAWYQQKPGKAPKLLIYLASTLASGVPSRFSGSGSGTQFTLTISSLQPDDFATYYCQNVYLASTNGANFGQGTKLTVLGGGGGSGGGGSGGGGSGGGGSEVQLVESGGGLVQPGGSLRLSCTASGFSLTDYYYMTWVRQAPGKGLEWVGFIDPDDDPYYATWAKGRFTISRDTSKNTVYLQMNSLRAEDTAVYYCAGGDHNSGWGLDIWGQGTLVTVSS

Continued, binder first:

Binder	Rel. activity hVEGR1 comp. ELISA (EC50Luc[nM]/EC50test[nM]) [1] [ratio]	Kd [2] [nM]	koff [2] [s⁻¹]	kon [2] [M⁻¹ s⁻¹]	Rel. activity hVEGR1 comp. ELISA (EC50Luc[nM]/EC50test[nM]) [3] [ratio]	Rel. activity hVEGR1 comp. ELISA (EC50Luc[nM]/EC50test[nM]) [4] [ratio]
567-min (scFv) EIVMTQSPSTLSASVGDRVIITCQADQSIYIWLSWYQQKPGKAPKLLIYKASTLESGVPSRFSGSGSGAEFTLTISSLQPDDFATYYCQNNAHYSTNGGTFGQGTKLTVLGGGGGSGGGGSGGGGSGGGGSEVQLVESGGGLVQPGGSLRLSCAASGFSLSDYYMCWVRQAPGKGLEWVSCLDYFGSTDDASWAKGRFTISRDNSKNTLYLQMNSLRAEDTAVYYCAKTDDSRGWGLNIWGQGTLVTVSS	57	0.23	0.000461	2.01e+06		
509-min (scFv) EIVMTQSPSTLSASVGDRVIITCQASQNIRIWLSWYQQKPGKAPKLLIYKASTLESGVPSRFSGSGSGAEFTLTISSLQPDDFATYYCQNNAHYSTNGGTFGQGTKLTVLGGGGGSGGGGSGGGGSGGGGSEVQLVESGGGLVQPGGSLRLSCAASGFSLSSYYMCWVRQAPGKGLEWVSCLDYVGDTDYASWAKGRFTISRDNSKNTLYLQMNSLRAEDTAVYYCAKTDDSRGWGLNIWGQGTLVTVSS	2.9	1.82	0.00114	623000		
567-max (scFv) EIVMTQSPSTLSASVGDRVIITCQADQSIYIWLSWYQQKPGKAPKLLIYKASTLESGVPSRFSGSGSGTQFTLTISSLQPDDFATYYCQNNAHYSTNGGTFGQGTKLTVLGGGGGSGGGGSGGGGSGGGGSEVQLVESGGGLVQPGGSLRLSCSVSGFSLSDYYMCWVRQAPGKGLEWVGCLDYFGSTDDASWAKGRFTISKDTSKNTVYLQMNSLRAEDTAVYYCARTDDSRGWGLNIWGQGTLVTVSS		0.188	0.000226	1.2e+06	54.5	15.7
511-max (scFv) EIVMTQSPSTLSASVGDRVIITCQASQSINIWLSWYQQKPGKAPKLLIYRASTLASGVPSRFSGSGSGTEFTLTISSLQPDDFATYYCQANYAYSAGYGAAFGQGTKLTVLGGGGGSGGGGSGGGGSGGGGSEVQLVESGGGLVQPGGSLRLSCTVSGFSLNTYYMNWVRQAPGKGLEWVGIIAPDDTTYYASWAKSRSTISRDTSKNTVYLQMNSLRAEDTAVYYCARSGDTTAWGADIWGQGTLVTVSS	8	0.0667	4.4e-05	659000		
